Reference: US20230312741A1 (published 2023)
Residue numbers refer to the chain shown, from its start.

B1: ADI-37497 (antibody, human IgG4 S228P, kappa, F234A L235A, V domains shown)
VH: EVQLVESGGGLVQPGGSLRLSCAASGFTFDDYFMHWVRQAPGKGLEWVSGISWSSGPIDYADSVKGRFTISRDNAKNSLYLQMNSLRAEDTAVYYCAKGKYLPTGSVDYWGQGTLVTVSS
VL: EIVLTQSPGTLSLSPGERATLSCRASQSVSSSYLAWYQQKPGQAPRLLIYGASSRATGIPDRFSGSGSGTDFTLTISRLEPEDFAVYYCQQYYDYPPITFGGGTKVEIKR
B2: ADI-37496 (antibody, human IgG4 S228P, kappa, F234A L235A, V domains shown)
VH: B1 VH with G16R, Y32F, F33Y, G56T, P57S
VL: B1 VL
B3: ADI-37504 (antibody, human IgG4 S228P, kappa, F234A L235A, V domains shown)
VH: EVQLLESGGGLVQPGGSLRLSCAASGFTFHNYAMSWVRQAPGKGLEWVSAISGTGRATYYADSVKGRFTISRDNSKNTLYLQMNSLRAEDTAVYYCARGGPYGSGSYWDTFDYWGQGTLVTVSS
VL: EIVMTQSPATLSVSPGERATLSCRASQSVSSNLAWYQQKPGQAPRLLIYGASTRATGIPARFSGSGSGTEFTLTISSLQSEDFAVYYCQQYTNHYTFGGGTKVEIKR
B4: ADI-37503 (antibody, human IgG4 S228P, kappa, F234A L235A, V domains shown)
VH: B3 VH with H30S, T54R, G55A, R56S, A57S
VL: B3 VL
B5: ADI-37507 (antibody, human IgG4 S228P, kappa, F234A L235A, V domains shown)
VH: B3 VH with H30L, S35A, T54R, G55A, R56T, A57S
VL: B3 VL
B6: ADI-37513 (antibody, human IgG4 S228P, kappa, F234A L235A, V domains shown)
VH: EVQLLESGGGVVQPGRSLRLSCAASGFTFNFYGMHWVRQAPGKGLEWVAVINDEGINKYYADSVKGRFTISRDNSKNTLYLQMNSLRAEDTAVYYCARGGARYPIAFDIWGQGTMVTVSS
VL: DIQLTQSPSSVSASVGDRVTITCRASQDISSWLAWYQQKPGKAPKLLIYAASSLQSGVPSRFSGSGSGTDFTLTISSLQPEDFATYYCQQANDFPITFGGGTKVEIKR
B7: ADI-37522 (antibody, human IgG4 S228P, kappa, F234A L235A, V domains shown)
VH: B6 VH with E1Q, L5V, N30S, F31H, N52S, I56S, G100W, A101L
VL: B6 VL
B8: ADI-37542 (antibody, human IgG4 S228P, kappa, F234A L235A, V domains shown)
VH: QVQLQESGPGLVKPSETLSLTCAVSGYSISEGYYWGWIRQPPGKGLEWIGSIYHTGFTYYNPSLKSRVTISVDTSKNQFSLKLSSVTAADTAVYYCARASIYTPPPEYFQHWGQGTLVTVSS
VL: DIQMTQSPSTLSASVGDRVTITCRASQSISSWLAWYQQKPGKAPKLLIYDASSLESGVPSRFSGSGSGTEFTLTISSLQPDDFATYYCQQSRIYSTFGGGTKVEIKR
B9: ADI-37543 (antibody, human IgG4 S228P, kappa, F234A L235A, V domains shown)
VH: B8 VH with E31S, G36A, Y53F, T55S, Y59F
VL: B8 VL
B10: ADI-37532 (antibody, human IgG4 S228P, kappa, F234A L235A, V domains shown)
VH: QVQLVESGGGVVQPGRSLRLSCAASGFTFSSYSMHWVRQAPGKGLEWVAHIVEGSDKYYADSVKGRFTISRDNSKNTLYLQMNSLRAEDTAVYYCARSRYDWSLFDIWGQGTMVTVSS
VL: EIVLTQSPGTLSLSPGERATLSCGASQSVSSSYLAWYQQKPGQAPRLLIYGASSRATGIPDRFSGSGSGTDFTLTISRLEPEDFAVYYCQQYVLYPFTFGGGTKVEIKR
B11: scfv fragment of ADI-37497 (scFv, V domains shown)
VH: B1 VH
VL: EIVLTQSPGTLSLSPGERATLSCRASQSVSSSYLAWYQQKPGQAPRLLIYGASSRATGIPDRFSGSGSGTDFTLTISRLEPEDFAVYYCQQYYDYPPITFGGGTKVEIK
B12: scfv fragment of ADI-37496 (scFv, V domains shown)
VH: B1 VH with G16R, Y32F, F33Y, G56T, P57S
VL: B11 VL
B13: scfv fragment of ADI-37503 (scFv, V domains shown)
VH: B3 VH with H30S, T54R, G55A, R56S, A57S
VL: EIVMTQSPATLSVSPGERATLSCRASQSVSSNLAWYQQKPGQAPRLLIYGASTRATGIPARFSGSGSGTEFTLTISSLQSEDFAVYYCQQYTNHYTFGGGTKVEIK
B14: scfv fragment of ADI-37506 (scFv, V domains shown)
VH: B3 VH with H30S, Y32L, T54R, G55A, R56T, A57S
VL: B13 VL
B15: scfv fragment of ADI-37507 (scFv, V domains shown)
VH: B3 VH with H30L, S35A, T54R, G55A, R56T, A57S
VL: B13 VL
B16: scfv fragment of ADI-37505 (scFv, V domains shown)
VH: B3 VH with E1Q, L5V, H30S, S35T, T54R, R56T
VL: B13 VL
B17: scfv fragment of ADI-37504 (scFv, V domains shown)
VH: B3 VH
VL: B13 VL
B18: scfv fragment of ADI-37513 (scFv, V domains shown)
VH: B6 VH
VL: DIQLTQSPSSVSASVGDRVTITCRASQDISSWLAWYQQKPGKAPKLLIYAASSLQSGVPSRFSGSGSGTDFTLTISSLQPEDFATYYCQQANDFPITFGGGTKVEIK
B19: scfv fragment of ADI-37522 (scFv, V domains shown)
VH: B6 VH with E1Q, L5V, N30S, F31H, N52S, I56S, G100W, A101L
VL: B18 VL
B20: scfv fragment of ADI-37542 (scFv, V domains shown)
VH: B8 VH
VL: DIQMTQSPSTLSASVGDRVTITCRASQSISSWLAWYQQKPGKAPKLLIYDASSLESGVPSRFSGSGSGTEFTLTISSLQPDDFATYYCQQSRIYSTFGGGTKVEIK
B21: scfv fragment of ADI-37532 (scFv, V domains shown)
VH: B10 VH
VL: EIVLTQSPGTLSLSPGERATLSCGASQSVSSSYLAWYQQKPGQAPRLLIYGASSRATGIPDRFSGSGSGTDFTLTISRLEPEDFAVYYCQQYVLYPFTFGGGTKVEIK

The binders below were run against T1, human CD73 expressed on the cell surface (human, UniProt P21589 27-549) (assay: cell-based or functional assay).
T1 sequence: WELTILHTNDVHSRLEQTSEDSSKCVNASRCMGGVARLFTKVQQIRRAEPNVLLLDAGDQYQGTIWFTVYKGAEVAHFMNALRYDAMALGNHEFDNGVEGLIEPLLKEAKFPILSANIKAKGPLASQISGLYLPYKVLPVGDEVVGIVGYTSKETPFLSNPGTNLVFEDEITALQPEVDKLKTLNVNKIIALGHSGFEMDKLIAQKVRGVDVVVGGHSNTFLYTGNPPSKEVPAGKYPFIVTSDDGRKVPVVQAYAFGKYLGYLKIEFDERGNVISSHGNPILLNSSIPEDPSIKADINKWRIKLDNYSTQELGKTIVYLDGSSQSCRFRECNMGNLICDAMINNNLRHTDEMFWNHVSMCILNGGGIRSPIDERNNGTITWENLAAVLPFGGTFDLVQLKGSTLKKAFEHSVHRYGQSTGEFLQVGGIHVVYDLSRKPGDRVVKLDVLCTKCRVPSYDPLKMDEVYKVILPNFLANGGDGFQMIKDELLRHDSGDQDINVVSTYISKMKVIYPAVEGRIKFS
With B1 the “IC50 for inhibiting the enzymatic activity of CD73 (Calu-6 cells)” value was 0.147 µg/mL. For B2, the “IC50 for inhibiting the enzymatic activity of CD73 (Calu-6 cells)” value was 0.173 µg/mL. B3 was tested, and the “IC50 for inhibiting the enzymatic activity of CD73 (Calu-6 cells)” value was 0.07 µg/mL. In the case of B4, the “IC50 for inhibiting the enzymatic activity of CD73 (Calu-6 cells)” value is reported as 0.062 µg/mL. In the case of B5, the “IC50 for inhibiting the enzymatic activity of CD73 (Calu-6 cells)” value is reported as 0.078 µg/mL. B6 was tested, and the “IC50 for inhibiting the enzymatic activity of CD73 (Calu-6 cells)” value was 0.143 µg/mL. In the case of B7, the “IC50 for inhibiting the enzymatic activity of CD73 (Calu-6 cells)” value is reported as 0.146 µg/mL. For B8, the “IC50 for inhibiting the enzymatic activity of CD73 (Calu-6 cells)” value was 0.189 µg/mL. For B9, the “IC50 for inhibiting the enzymatic activity of CD73 (Calu-6 cells)” value was 0.196 µg/mL. In the case of B10, the “IC50 for inhibiting the enzymatic activity of CD73 (Calu-6 cells)” value is reported as 0.114 µg/mL.

These binders were tested against T2, cynomolgus monkey CD73 antigen (cynomolgus monkey, UniProt A0A2K5V5U7 27-547) (assay: ForteBio BLI; antigen on sensor, 100 nM scFv; monovalent; 1:1 model).
T2 construct: also called Biotinylated cynomolgus monkey CD73
T2 sequence: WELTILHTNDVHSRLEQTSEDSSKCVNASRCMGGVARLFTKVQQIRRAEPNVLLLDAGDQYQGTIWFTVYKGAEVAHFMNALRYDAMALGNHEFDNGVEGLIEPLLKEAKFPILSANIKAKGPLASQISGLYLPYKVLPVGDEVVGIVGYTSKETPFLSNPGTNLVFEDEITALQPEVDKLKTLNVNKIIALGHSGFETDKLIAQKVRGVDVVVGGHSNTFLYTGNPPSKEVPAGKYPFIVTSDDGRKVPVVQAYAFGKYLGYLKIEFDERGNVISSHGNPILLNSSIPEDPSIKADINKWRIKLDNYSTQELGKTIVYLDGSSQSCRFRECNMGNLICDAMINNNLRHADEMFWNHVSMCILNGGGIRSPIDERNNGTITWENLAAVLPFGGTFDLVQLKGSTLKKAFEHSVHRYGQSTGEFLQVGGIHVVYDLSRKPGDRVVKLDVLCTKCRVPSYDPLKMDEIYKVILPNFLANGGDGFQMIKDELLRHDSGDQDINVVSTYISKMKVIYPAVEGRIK
Experimental: (§1) Human or cynomolgus monkey CD73 antigen protein was loaded on-line to the AHQ sensor (ForteBio) for ForteBio affinity measurement. […] Kinetic analysis was performed by using a 1:1 binding model.
Binder B11 has a Kd of 8.82 nM. Work on B12 yielded a Kd of 13.7 nM. For B13, the Kd was 6.61 nM. In the case of B14, the Kd is reported as 4.77 nM. B15 gave a Kd of 23.7 nM. With B16 the Kd was 5.34 nM. For B17, the Kd was 20.2 nM. Work on B18 yielded a Kd of 2.26 nM. Work on B19 yielded a Kd of 2.93 nM. B20 showed a Kd of 5.47 nM. With B21 the Kd was 0.53 nM.

Each binder was assayed against T3, human CD73 antigen (human, UniProt P21589 27-547) in the same assay as above.
T3 construct: also called Biotinylated Human CD73
T3 sequence (looked up): T2 sequence with T199M, A350T, I466V
Experimental: as §1
In the case of B11, the Kd is reported as 10.2 nM. B12 showed a Kd of 13.8 nM. B13 was tested, and the Kd was 7.95 nM. B14 was tested, and the Kd was 5.41 nM. B15 showed a Kd of 9.21 nM. For B16, the Kd was 5.56 nM. B17 showed a Kd of 15.4 nM. B18 showed a Kd of 2.84 nM. Binder B19 has a Kd of 2.43 nM. B20 gave a Kd of 6.04 nM. Binder B21 has a Kd of 0.581 nM.
